The source of these data is US20210198329A1 (PASTEUR INSTITUTE OF IRAN, published 2021).

This assay addresses T1, low-density lipoprotein receptor-related protein 6 (LRP6) (UniProt O75581 20-1370, limits assumed).
T1 construct: also called LRP6 receptor
T1 sequence (looked up): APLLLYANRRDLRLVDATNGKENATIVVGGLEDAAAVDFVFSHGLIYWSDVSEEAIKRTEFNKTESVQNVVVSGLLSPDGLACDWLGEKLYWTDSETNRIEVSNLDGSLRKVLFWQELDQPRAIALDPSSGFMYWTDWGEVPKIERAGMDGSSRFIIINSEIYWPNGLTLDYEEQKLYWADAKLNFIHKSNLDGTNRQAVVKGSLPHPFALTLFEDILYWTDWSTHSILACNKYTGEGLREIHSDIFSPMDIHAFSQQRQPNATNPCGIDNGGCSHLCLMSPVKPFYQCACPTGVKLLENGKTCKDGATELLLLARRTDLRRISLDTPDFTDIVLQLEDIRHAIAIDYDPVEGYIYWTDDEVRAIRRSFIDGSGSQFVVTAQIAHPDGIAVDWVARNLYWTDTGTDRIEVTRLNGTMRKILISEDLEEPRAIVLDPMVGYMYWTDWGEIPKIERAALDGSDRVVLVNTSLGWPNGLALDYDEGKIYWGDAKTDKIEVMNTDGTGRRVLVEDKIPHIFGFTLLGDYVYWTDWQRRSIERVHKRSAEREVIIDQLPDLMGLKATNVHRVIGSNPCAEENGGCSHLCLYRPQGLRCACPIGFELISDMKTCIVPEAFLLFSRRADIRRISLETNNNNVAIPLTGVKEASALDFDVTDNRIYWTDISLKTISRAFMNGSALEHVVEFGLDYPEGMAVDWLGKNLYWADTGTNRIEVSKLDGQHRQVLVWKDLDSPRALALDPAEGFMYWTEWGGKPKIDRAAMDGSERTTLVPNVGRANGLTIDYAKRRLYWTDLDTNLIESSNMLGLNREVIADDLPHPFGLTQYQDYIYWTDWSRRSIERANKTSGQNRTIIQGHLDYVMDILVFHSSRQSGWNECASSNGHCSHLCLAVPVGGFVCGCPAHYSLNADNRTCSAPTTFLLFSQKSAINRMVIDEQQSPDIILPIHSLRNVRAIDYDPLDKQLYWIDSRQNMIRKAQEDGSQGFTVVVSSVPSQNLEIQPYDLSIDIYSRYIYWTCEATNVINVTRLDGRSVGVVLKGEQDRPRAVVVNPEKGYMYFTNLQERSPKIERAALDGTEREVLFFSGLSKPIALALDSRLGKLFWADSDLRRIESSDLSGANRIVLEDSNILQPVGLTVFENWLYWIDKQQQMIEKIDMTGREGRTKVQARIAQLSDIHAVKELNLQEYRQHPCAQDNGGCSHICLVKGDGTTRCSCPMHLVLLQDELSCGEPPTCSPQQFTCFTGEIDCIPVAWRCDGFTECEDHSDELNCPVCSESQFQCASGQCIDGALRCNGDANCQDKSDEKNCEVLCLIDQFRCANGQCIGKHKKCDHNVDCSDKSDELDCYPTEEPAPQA
Briefly: LSPR spectroscopy; peptide on nanoparticles as ligand, LRP6 as analyte at 10^-9 to 10^-6 M; sigmoid fit of plasmon shift. Here is the method:
In this example, the binding affinity of exemplary peptides to the LRP6 receptor was determined by performing localized surface plasmon resonance (LSPR) spectroscopy. In the LSPR spectroscopy, the response of free electrons to nanoparticles in the presence of biomolecules may be observed as changes in wavelength and intensity of absorption. A stabilized compound on the nanoparticles' surface is called a ligand, and a second free compound is called an analyte. […] Also, the LRP6 was used as the analyte because of its negative surface charge. By adding the LRP6 as the analyte in the concentration ranges of 10⁻⁹ M to 10⁻⁶ M, the wavelength changes (plasmon shift) were recorded for each concentration. In the end, the KD values of exemplary peptides were determined by calculating the sigmoid curve of wavelength changes in terms of LRP6 concentration.

Bridges are numbered along the chain shown (N, C = ends). Where no end group is shown, it is not given here.

B1: pep-2 (SEQ ID NO: 2) (peptide)
peptide: QVCTKHRRKGSHGLEIFQRCY
notes: Held on nanoparticles as the ligand in the LSPR assay
As to B1, the equilibrium dissociation constant (Kd) was around 470 nM.

B2: pep-4 (SEQ ID NO: 4) (peptide)
peptide: CCARHFWSKIC
modifications: disulfide 1-11
notes: Made by synthesis; Held on nanoparticles as the ligand in the LSPR assay
For the molecule B2, the Kd is around 550 nM.

By Kd is commonly meant a measure of binding affinity in units of concentration.
